This assay has as its target FleQ, full length (FleQFL) (Pseudomonas aeruginosa) (UniProt G3XCV0).

FleQ, full length (FleQFL) (Pseudomonas aeruginosa), sequence (G3XCV0 whole entry): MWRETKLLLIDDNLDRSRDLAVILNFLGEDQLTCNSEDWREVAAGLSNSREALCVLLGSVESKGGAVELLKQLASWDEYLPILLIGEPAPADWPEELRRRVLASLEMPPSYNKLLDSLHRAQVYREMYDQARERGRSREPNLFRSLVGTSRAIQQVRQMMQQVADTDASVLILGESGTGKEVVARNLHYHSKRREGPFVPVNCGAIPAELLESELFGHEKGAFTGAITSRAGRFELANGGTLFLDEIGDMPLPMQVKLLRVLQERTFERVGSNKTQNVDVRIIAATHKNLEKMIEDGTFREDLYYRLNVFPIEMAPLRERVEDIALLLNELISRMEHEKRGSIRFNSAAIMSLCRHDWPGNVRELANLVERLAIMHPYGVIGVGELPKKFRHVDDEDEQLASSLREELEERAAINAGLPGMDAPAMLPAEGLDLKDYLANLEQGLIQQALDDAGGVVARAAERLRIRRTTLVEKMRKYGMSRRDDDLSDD

B1: C-terminal peptide of FleN comprising the last 25 amino acids (peptide)
peptide: PANPRGHLEFFVERLVQHPATGSAV
B1 came in with an ATPase activity of FleQ (1 μM) left with 100 μM C-terminal peptide of FleN of 66%.

The record behind these values is publication PMC8528422.
